These results are taken from patent US9206432B2, “Sulfonylurea-responsive repressor proteins” (priority 2008, dated 2015).

Where two headings read alike, the source gives them in different places.

For the data set, the system named is lacZ under control of the tetA promoter (PtetA) in E. coli KM3. The format is cell-based. Conditions: for relative β-galactosidase activity, inducer atc: anhydrotetracycline (0.4 μM).
The mark [1] stands for this setting: Table 6, reverse repressor hits.
Where [2] appears, read: Table 6, reverse repressor hits, chlorimuron, same plate assay format (20 ppm).
[3] abbreviates: Table 6, reverse repressor hits, chlorsulfuron, same plate assay format (20 ppm).
Setting [4] is: Table 6, reverse repressor hits, ethametsulfuron, same plate assay format (20 ppm).
Where [5] appears, read: Table 6, reverse repressor hits, metsulfuron, same plate assay format (20 ppm).
Setting [6] is: Table 6, reverse repressor hits, nicosulfuron, same plate assay format (20 ppm).
Setting [7] is: Table 6, reverse repressor hits, rimsulfuron, same plate assay format (20 ppm).
[8] abbreviates: Table 6, reverse repressor hits, sulfometuron, same plate assay format (20 ppm).
Where [9] appears, read: Table 6, reverse repressor hits, thifensulfuron, same plate assay format (20 ppm).
Where [10] appears, read: Table 6, reverse repressor hits, tribenuron, same plate assay format (20 ppm).
Setting [11] is: Table 4, chlorimuron 20 ppm, 48 hrs at 30° C.
The mark [12] stands for this setting: Table 4, chlorsulfuron 20 ppm, 48 hrs at 30° C.
Where [13] appears, read: Table 4, ethametsulfuron 20 ppm, 48 hrs at 30° C.
The mark [14] stands for this setting: Table 4, metsulfuron 20 ppm, 48 hrs at 30° C.
Setting [15] is: Table 4, nicosulfuron 20 ppm, 48 hrs at 30° C.
Setting [16] is: Table 4, rimsulfuron 20 ppm, 48 hrs at 30° C.
[17] abbreviates: Table 4, sulfometuron 20 ppm, 48 hrs at 30° C.
Setting [18] is: Table 4, thifensulfuron 20 ppm, 48 hrs at 30° C.
Setting [19] is: Table 4, tribenuron 20 ppm, 48 hrs at 30° C.

B1: L1-39: library L1 hit with reverse repressor activity (SEQ ID NO: 1206-1213) (protein)
chain: MGSRLDKSKVINSALELLNEVGIEGLTTRKLAQKLGVEQPTLYWHVKNKRALLDALAIEMMDRHQTHFCPLEGESWQDFLRNTAKSYRCALLSHRDGAKVILGTRWTEKQYETRENVLAFLCQQGFSLENALYAWAAVGPFTLGCVLRDQERQVAKEERETPTTDSMPPLLRQALELMDHQGAEPAFLFGLELIICGLEKQLKCESGS
modifications: rSuR L1-39
Regarding B1, the “relative β-galactosidase activity, inducer atc” value under setting [1] came to 4.92. Also, the “relative β-galactosidase activity, inducer Ci” value under setting [2] is 0.49. In addition, the “relative β-galactosidase activity, inducer Cs” value under setting [3] is on record as 0.89. For the same molecule, the “relative β-galactosidase activity, inducer Es” value under setting [4] is on record as 0.60. Under setting [5], the “relative β-galactosidase activity, inducer Ms” value was determined as 0.75. Moreover, the “relative β-galactosidase activity, inducer Ns” value under setting [6] is listed as 3.03. Besides, the “relative β-galactosidase activity, inducer Rs” value under setting [7] is given as 4.72. In addition, the “relative β-galactosidase activity, inducer Sm” value under setting [8] amounted to 0.91. In addition, the “relative β-galactosidase activity, inducer Ts” value under setting [9] is listed as 1.42. Besides, the “relative β-galactosidase activity, inducer Tb” value under setting [10] is reported as 0.97.

B2: L1-2: SU-responsive TetR(B) ligand binding domain variant, library L1 hit, SEQ ID NO: 3 (protein)
chain: MGSRLDKSKVINSALELLNEVGIEGLTTRKLAQKLGVEQPTLYWHVKNKRALLDALAIEMLDRHATHFCPLEGESWQDFLRNNAKSFRCALLSHRDGAKVCLGTAVTEKQYETMENILAFLCQQGFSLENALYARRAVIAFTLGCVLWDQEYQVAKEERETPTTDSMPPLLRQARELIDHQGAEPAFLFGLELIICGLEKQLKCESGS
modifications: Sulfonylurea responsive repressor L1-02
For B2, under setting [11], the “relative β-galactosidase activity, inducer Ci” value came to 13.6. Also, under setting [12], the “relative β-galactosidase activity, inducer Cs” value is listed as 4.1. Also, the “relative β-galactosidase activity, inducer Es” value under setting [13] is on record as 5.8. Moreover, the “relative β-galactosidase activity, inducer Ms” value under setting [14] was 1.9. For the same molecule, the “relative β-galactosidase activity, inducer Ns” value under setting [15] is recorded as 1.3. Further, the “relative β-galactosidase activity, inducer Rs” value under setting [16] is given as 1.3. For the same molecule, the “relative β-galactosidase activity, inducer Sm” value under setting [17] was determined as 4.7. Also, the “relative β-galactosidase activity, inducer Ts” value under setting [18] is listed as 1.6. In addition, the “relative β-galactosidase activity, inducer Tb” value under setting [19] was 1.7.

B3: L1-7: SU-responsive TetR(B) variant, library L1 hit, SEQ ID NO: 4 (protein)
chain: MGSRLDKSKVINSALELLNEVGIEGLTTRKLAQKLGVEQPTLYWHVKNKRALLDALAIEMLDRHNTHFCPLEGESWQDFLRNNAKSWRCALLSHRDGAKVVLGTAITEKQYETHENPLAFLCQQGFSLENALYAIAAVRRFTLGCVLVDQERQVAKEERETPTTDSMPPLLRQASELQDHQGAEPAFLFGLELIICGLEKQLKCERGS
modifications: Sulfonylurea responsive repressor L1-07
As to B3, the “relative β-galactosidase activity, inducer Ci” value under setting [11] is on record as 16.5. In addition, the “relative β-galactosidase activity, inducer Cs” value under setting [12] was found to be 3.1. Moreover, under setting [13], the “relative β-galactosidase activity, inducer Es” value came to 0.1. For the same molecule, under setting [14], the “relative β-galactosidase activity, inducer Ms” value stood at 0.2. Further, under setting [15], the “relative β-galactosidase activity, inducer Ns” value turned out to be 0.1. The “relative β-galactosidase activity, inducer Rs” value under setting [16] came out at 0.2. For the same molecule, the “relative β-galactosidase activity, inducer Sm” value under setting [17] came to 6.4. The “relative β-galactosidase activity, inducer Ts” value under setting [18] was found to be 0.1. Besides, the “relative β-galactosidase activity, inducer Tb” value under setting [19] turned out to be 0.2.

B4: L1-36: library L1 hit with reverse repressor activity (SEQ ID NO: 1206-1213) (protein)
chain: MGSRLDKSKVINSALELLNEVGIEGLTTRKLAQKLGVEQPTLYWHVKNKRALLDALAIEMADRHHTHFCPLEGESWQDFLRNAAKSMRCALLSHRDGAKVRLGTAWTEKQYETHENVLAFLCQQGFSLENALYALKAVSGFTLGCVLKDQEMQVAKEERETPTTDSMPPLLRQATELVDHQGAEPAFLFGLELIICGLEKQLKCESGS
modifications: rSuR L1-36
In the case of B4, under setting [1], the “relative β-galactosidase activity, inducer atc” value was 1.70. Further, the “relative β-galactosidase activity, inducer Ci” value under setting [2] amounted to 0.21. In addition, the “relative β-galactosidase activity, inducer Cs” value under setting [3] turned out to be 0.24. The “relative β-galactosidase activity, inducer Es” value under setting [4] came out at 0.20. For the same molecule, under setting [5], the “relative β-galactosidase activity, inducer Ms” value was determined as 0.38. In addition, the “relative β-galactosidase activity, inducer Ns” value under setting [6] worked out at 1.81. In addition, the “relative β-galactosidase activity, inducer Rs” value under setting [7] came to 1.84. Moreover, the “relative β-galactosidase activity, inducer Sm” value under setting [8] stood at 0.50. In addition, under setting [9], the “relative β-galactosidase activity, inducer Ts” value turned out to be 0.48. Besides, under setting [10], the “relative β-galactosidase activity, inducer Tb” value is on record as 0.57.

B5: L1-41: library L1 hit with reverse repressor activity (SEQ ID NO: 1206-1213) (protein)
chain: MGSRLDKSKVINSALELLNEVGIEGLTTRKLAQKLGVEQPTLYWHVKNKRALLDALAIEMLDRNQTHFCPLEGESWQDFLRNNAKSWRCALLSHRDGAKVMLGTRNTEKQYETAENGLAFLCQQGFSLENALYACRAVWTFTLGCVLDDQETQVAKEERETPTSDSMPPLLRQAMELKDHQGAEPAFLFGLELIICGLEKQLKCESGS
modifications: rSuR L1-41
For B5, the “relative β-galactosidase activity, inducer atc” value under setting [1] is listed as 4.21. Further, the “relative β-galactosidase activity, inducer Ci” value under setting [2] was 0.39. In addition, the “relative β-galactosidase activity, inducer Cs” value under setting [3] turned out to be 0.61. Besides, the “relative β-galactosidase activity, inducer Es” value under setting [4] turned out to be 0.18. Under setting [5], the “relative β-galactosidase activity, inducer Ms” value turned out to be 0.56. For the same molecule, the “relative β-galactosidase activity, inducer Ns” value under setting [6] is on record as 2.75. The “relative β-galactosidase activity, inducer Rs” value under setting [7] is given as 4.05. Also, under setting [8], the “relative β-galactosidase activity, inducer Sm” value was determined as 0.67. In addition, under setting [9], the “relative β-galactosidase activity, inducer Ts” value was found to be 1.46. For the same molecule, the “relative β-galactosidase activity, inducer Tb” value under setting [10] is listed as 1.41.

B6: L1-20: SU-responsive TetR(B) variant, library L1 hit, SEQ ID NO: 6 (protein)
chain: MGSRLDKSKVINSALELLNEVGIEGLTTRKLAQKLGVEQPTLYWHVKNKRALLDALAIEMMDRHQTHFCPLEGESWQDFLRNNAKSMRCALLSHRDGAKVFLGTAWTEKQYETVENLLAFLCQQGFSLENALYALNAVATFTLGCVLWDQEKQVAKEERETPTTDSMPPLLRQAHELGDHQGAEPAFLFGLELIICGLEKQLKSESGS
modifications: Sulfonylurea responsive repressor L1-20
As for B6, under setting [11], the “relative β-galactosidase activity, inducer Ci” value was found to be 13.5. The “relative β-galactosidase activity, inducer Cs” value under setting [12] is listed as 22.0. The “relative β-galactosidase activity, inducer Es” value under setting [13] came to 15.0. Besides, the “relative β-galactosidase activity, inducer Ms” value under setting [14] was 12.4. In addition, the “relative β-galactosidase activity, inducer Ns” value under setting [15] turned out to be 1.6. Further, the “relative β-galactosidase activity, inducer Rs” value under setting [16] was 2.0. Moreover, the “relative β-galactosidase activity, inducer Sm” value under setting [17] came out at 6.0. Further, the “relative β-galactosidase activity, inducer Ts” value under setting [18] turned out to be 2.6. Besides, the “relative β-galactosidase activity, inducer Tb” value under setting [19] worked out at 2.6.
